# Read-outs that look alike come from different tables or passages of the source.
# B1: vaso: N-terminal domain of calreticulin (amino acids 1-180, SEQ ID NO:3); given as fusion protein with maltose binding protein, MBP-vaso (protein)
# chain: EPAVYFKEQFLDGDGWTSRWIESKHKSDFGKFVLSSGKFYGDEEKDKGLQTSQDARFYALSASFEPFSNKGQTLVVQFTVKHEQNIDCGGGYVKLFPNSLDQTDMHGDSEYNIMFGPDICGPGTKKVHVIFNYKGKNVLINKDIRCKDDEFTHLYTLIVRPDNTYEVKIDNSQVESGSLE
# modifications: Vasostatin
# What was measured:
# [1] = test system: peripheral blood white cells
# Experimental: Groups of mice (C57BL/B6, 6 weeks old, 10 mice/group) were treated for 4 days with either buffer (PBS, 100 μl/mouse/day), native vaso (200 μg/mouse/day s.c) or denatured vaso ([…]). On day 5, some of the animals were treated with cytoxan and the original treatment with buffer, native or denatured vaso was continued. On day 9 (5 days after one half of the mice had received cytoxan), peripheral blood white cell counts were measured.
# To examine whether the effects of vaso on the hematopoietic system are attributable to the native protein, the effects of native vaso were compared with the effects of vaso that had been denatured by boiling. Groups of mice (n=10) were treated for 4 days with either buffer (100 μl/mouse s.c); native vaso (200 μg/mouse/day s.c); or denatured vaso (300 μg/mouse/day s.c). On day 5, some of the mice were injected with cyclophosphamide (2 mg/mouse/i.p.) and treatment continued with either buffer, native vaso or denatured vaso. The experiment was terminated on day […], at which time peripheral blood counts were measured.
# bone marrow cells = test system: bone marrow cells
# Experimental: Groups of C57BL/6 mice (8 weeks of age) were treated as described in FIG. 14. FIG. 4A is a bar graph of the bone marrow cell count from mice treated for 16 days with either buffer alone (PBS, 100 μl/mouse/day s.c), Vaso (300 μg/mouse/day s.c) alone, Cytoxan (500 μg/mouse/day i.p.) alone, or vaso (300 μg/mouse/day s.c) plus Cytoxan (500 μg/mouse/day i.p.). Bone marrow was harvested on days 9 and 17 and the number of nucleated cells were counted. FIG. 4B is a bar graph of the bone marrow cell count from mice treated with for 11 days with either buffer alone (PBS, 100 μl/mouse/day s.c), Vaso (300 μg/mouse/day s.c) alone, Cytoxan (250 μg/mouse/day i.p.)×11 days plus Cytoxan 2 mg/mouse i.p. on day 11, or Cytoxan ([…] s.c, days 1-16). Bone marrow cell counts were obtained on day 17. FIG. 4C is a bar graph of peripheral blood white cells counts (WBC) on day 17 from mice from the same treatment groups described in B. […]
# In addition, rather than treating the mice with vaso prior to toxin exposure as described above, mice were simultaneously inoculated with cyclophosphamide and vaso. Thus, groups of mice (n=6) received either buffer alone (100 μl s.c) daily for 16 days, vaso (300 μg/mouse s.c) alone daily for 16 days, cyclophosphamide (500 μg/mouse i.p.) either alone or together with vaso (300 μg/mouse s.c) for 16 days. Other groups of mice (n=6) were inoculated daily for 11 days with cyclophosphamide (250 μg/mouse i.p.) either alone or together with vaso (300 μg/mouse s.c).
# [2] = test system: fetal bovine heart endothelial cells (FBHEC); conditions: as previously reported (Pike et al., 1998; 1999); cited from earlier work
# human CD34+ cells = assay: Proliferation of purified human peripheral blood CD34+ cells; assay type: cell-based
# Experimental: FIG. 12 is a bar graph of the proliferative responses of human CD34-positive cells to vaso. Human CD34-positive cells purified (>90% purity) from the peripheral blood of a normal individual after G-CSF mobilization following standard procedures were cultured (1×10^6 cells/ml) in 24 well tissue culture plates in RPMI 1640 medium supplemented with 15% FBS. […] Vaso was added at 10 μg/ml. Cell proliferation was measured during the final 22 hr of a 5, 6 or 9 day culture by ^3H thymidine incorporation. Data is shown as the mean of triplicate cultures.
# To this end, CD34+ cells were purified to a high degree of homogeneity (>90% purity) from the peripheral blood of normal donors, according to established protocols (Mavroudis et al. Bone Marrow Transplant 21:431-40, 1998).
# The purified human CD34+ cells along with the negatively selected CD34− mononuclear cell population were cultured in RPMI 1640 medium containing 15% FBS. Human Stem Cell Factor (300 ng/ml) and Flt-3 ligand (300 ng/ml) were added to the culture medium. […] Thus, purified hematopoietic cells from both mouse and man proliferate in response to vaso.
# Vaso, calreticulin fragment 103-163, calreticulin fragment 120-146, and calreticulin fragment 128-146 (all used at 10 μg/ml) were tested in side-by-side assays for their ability to stimulate murine bone marrow hematopoietic cells in the presence of IL-3 (20 ng/ml). […]
# murine bone marrow cells [3] = test system: murine bone marrow cells
# murine bone marrow cells [4] = assay: Murine bone marrow cell proliferation in vitro ([3H] thymidine incorporation)
# [5] = vaso 10 μg/ml in the presence of growth factors
molecule,measurement,setting,value
"O=P1(N(CCCl)CCCl)NCCCO1 (centres unmarked) [cyclophosphamide, reference compound]",peripheral blood white cell counts,"[1]; cyclophosphamide 2 mg/mouse i.p. with buffer, vs buffer-only controls",markedly reduced
same,bone marrow cell counts on day 17,"bone marrow cells; cyclophosphamide 250 μg/mouse daily for 11 days then single 2 mg/mouse injection on day 12, alone",considerable reduction of bone marrow cell counts
same,bone marrow cell counts on day 9,"bone marrow cells; cytoxan 500 μg/mouse/day i.p. alone, vs PBS controls",did not reduce bone marrow cell counts on day 9
same,bone marrow cell counts on day 17,"bone marrow cells; cytoxan 500 μg/mouse/day i.p. for 16 days alone, vs PBS controls",reduced them on day 17
B1,peripheral blood white cell counts after cyclophosphamide (alleviation of toxicity),[1]; cyclophosphamide 2 mg/mouse i.p. plus native vaso 200 μg/mouse/day s.c. or denatured vaso 300 μg/mouse/day s.c.,minimally different from those of the control mice
same,proliferation of primary cultures of FBHEC,[2],consistently inhibited the proliferation
same,cell growth of purified human CD34+ peripheral blood cells,human CD34+ cells; IL-3 alone or IL-3 together with IL-6 and Stem Cell Factor,similarly stimulated cell growth
same,proliferation of CD34+ cells,"human CD34+ cells; vaso 10 μg/ml, Stem Cell Factor 300 ng/ml and Flt-3 ligand 300 ng/ml",responded with increased proliferation
same,bone marrow cell proliferation induced by IL-3 at the highest dose of cisplatinum,murine bone marrow cells [3],minimal
same,murine bone marrow cell proliferation with or without cisplatinum,"murine bone marrow cells [4]; Vaso 10 μg/ml, IL-3 (30 μg/ml), cisplatinum between 5 and 0.02 nM",enhanced murine bone marrow cell proliferation
same,growth of murine hematopoietic cells after 5 or 6 days of culture,"murine bone marrow cells [4]; all used at 10 μg/ml, IL-3 20 ng/ml",stimulated the growth
same,bone marrow cell proliferation vs growth factors alone,"murine bone marrow cells [4]; day 5, vaso 12.5-50 μg/ml added to IL-3 plus IL-6 plus Stem Cell Factor",21-54 fold
same,mafosfamide concentrations at which growth stimulatory effect of vaso was appreciable,murine bone marrow cells [4]; mafosfamide added after 3 days of culture,≤ 8 µg/mL
same,increase in cell proliferation on day 5,"murine bone marrow cells [4]; unseparated marrow, vaso 10 μg/ml, IL-3 20 ng/ml",3.4 fold
same,direct stimulation of bone marrow cell proliferation,"murine bone marrow cells [4]; vaso 10 μg/ml in medium alone, no growth factors",failed to directly stimulate
same,promotion of bone marrow cell proliferation on day 5,murine bone marrow cells [4]; [5],39 fold
same,promotion of bone marrow cell proliferation on day 6,murine bone marrow cells [4]; [5],17 fold
same,promotion of bone marrow cell proliferation on day 4,"murine bone marrow cells [4]; vaso 10 μg/ml in the presence of growth factors (IL-3, IL-6, stem cell factor)",6.5 fold
same,stimulation of background cpm,"murine bone marrow cells [4]; vaso 10 μg/ml, absence of exogenously added growth factors, 7 day culture",approximately 2 fold
same,promotion of bone marrow cell proliferation in the presence of Etoposide,"murine bone marrow cells [4]; vaso 10 μg/ml, Etoposide 77 nM, growth factors",to the same or greater degree than in the absence of Etoposide
same,increase of IL-3-induced bone marrow proliferation in the presence of Etoposide,"murine bone marrow cells [4]; vaso 10 μg/ml, Etoposide 385-15.4 nM, day 5",evident even in the presence of Etoposide
same,"bone marrow cell proliferation induced by IL-3, day 5","murine bone marrow cells [4]; vaso 10 μg/ml, IL-3 20 ng/ml",enhanced bone marrow cell proliferation
same,enhancement of IL-3 induced response on day 4,"murine bone marrow cells [4]; vaso 10 μg/ml, IL-3 20 ng/ml",approximately 3 fold
same,enhancement of proliferative response on day 5 or 6,"murine bone marrow cells [4]; vaso 10 μg/ml, IL-3 or combination of IL-3, IL-6 and Stem Cell Factor",7-16 fold
same,proliferative response on day 3,"murine bone marrow cells [4]; vaso 10 μg/ml, combination of IL-3, IL-6 and Stem Cell Factor","enhanced the response induced by the combination of IL-3, IL-6 and Stem Cell Factor slightly"
same,proliferation of bone marrow cells exposed to mafosfamide,"murine bone marrow cells [4]; vaso 12.5 μg/ml, growth factors, 6 days culture",markedly enhanced
same,bone marrow cell proliferation in the presence of methotrexate,"murine bone marrow cells [4]; vaso 0.25-10 μg/ml, methotrexate 100 nM and growth factors, 7 day culture",dose-dependently stimulated
same,bone marrow cell counts on day 17,bone marrow cells; Vaso 300 μg/mouse/day s.c. for 16 days with cyclophosphamide 250 μg/mouse daily for 11 days then 2 mg/mouse on day 12,prevented the occurrence of a reduction in bone marrow cell counts
same,bone marrow cell count on days 9 and 17,bone marrow cells; cyclophosphamide 500 μg/mouse/day i.p. plus vasostatin 300 μg/mouse/day s.c.,higher than in the control mice and in the mice treated with cytoxan

# Source: patent US7812117B2, “Vasostatin as marrow protectant” (The United States of America as represented by the …, priority 1998, dated 2010)
